Consider two molecules from publication PMC6070864, “The Bacteriophage T4 MotB Protein, a DNA-Binding Protein, Improves Phage Fitness”.

Data set [1] concerns the target T1, MotB-His (Enterobacteria phage T4, UniProt Q01437 1-162).
T1 sequence: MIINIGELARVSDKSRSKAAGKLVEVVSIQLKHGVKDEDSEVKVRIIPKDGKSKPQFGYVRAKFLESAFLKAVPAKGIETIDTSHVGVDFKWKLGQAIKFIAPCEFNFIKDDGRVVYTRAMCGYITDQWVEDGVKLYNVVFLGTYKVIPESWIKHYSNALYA
Put plainly: EMSA; apparent Kd (50% shift); 4 mM Mg acetate; Oligo EMSA/footprint: 40 mM Tris acetate pH 7.9, 20 mM Tris-HCl pH 8.0, 2 mM K phosphate, 60 mM NaCl, 150 mM K glutamate, 4 mM Mg acetate, 0.52 mM EDTA, 0.14 mM DTT, 0.1 mg/mL BSA, 0.004% Triton X-100, 30% glycerol, 1 nM DNA (5 nM in footprint), 37 C 10 min; T4/lambda EMSA: 20 mM Tris-HCl pH 8, 2 mM K phosphate, 60 mM NaCl, 0.42 mM EDTA, 0.04 mM DTT, 0.004% Triton …. The conditions noted are these: protein: recombinant; tags: C-terminal His6; label: 5'-32P top strand. For orientation: Mobility shift assays separate free from complexed probe on a gel.

The target of data set [2] is T1, MotB-His. Put plainly: EMSA; 4 mM Mg acetate; Oligo EMSA/footprint: 40 mM Tris acetate pH 7.9, 20 mM Tris-HCl pH 8.0, 2 mM K phosphate, 60 mM NaCl, 150 mM K glutamate, 4 mM Mg acetate, 0.52 mM EDTA, 0.14 mM DTT, 0.1 mg/mL BSA, 0.004% Triton X-100, 30% glycerol, 1 nM DNA (5 nM in footprint), 37 C 10 min; T4/lambda EMSA: 20 mM Tris-HCl pH 8, 2 mM K phosphate, 60 mM NaCl, 0.42 mM EDTA, 0.04 mM DTT, 0.004% Triton X-100, 30% glycerol, 37 C 10 …. The conditions noted are these: protein: recombinant; tags: C-terminal His6; label: 5'-32P.

B1: dsP8 (37 bp) (dsDNA)
DNA 1: CAGAGACTATAATTAATAAATACAAAAACTATAAATG
DNA 2: CATTTATAGTTTTTGTATTTATTAATTATAGTCTCTG
Turning to B1, the Kd with MotB-His [1] was determined as 100 ± 30 nM.

Regarding CAGAGACTATAATTAATAAATACAAAAACTATAAATG (ssDNA) [ssP8 (37 nt)], in the data set with MotB-His [2], the binding signal is ~6 fold lower affinity than dsP8.
